Substitutions are numbered along the chain they refer to. In names and notes the source's numbering stands. Blank lines part the entries; values can stand above or below the binder they belong to.
What was measured:
Conditions in all cases: both partners purified
[1] = target: T1, Drosophila melanogaster histone H3-H4 complex, full-length (Drosophila melanogaster, UniProt P02299 1-136; P84040 1-103); assay: NMR titration; 20 μM [U-2H/13C/15N]H3-H4 incubated with 0, 10 or 20 μM APLF 459–474 peptide in 25 mM NaPi pH 7.0, 300 mM NaCl, then exchanged to 50 mM acetate pH 5; TROSY at 900 MHz, 308 K
T1 construct: histone H3, Drosophila melanogaster, full-length; histone H4, Drosophila melanogaster, full-length; Eluted as a histone tetramer in SEC; H3 was 2H/13C/15N-labelled for NMR on H3-H4; also called (H3-H4)2; histone tetramer; copies: 2 + 2

[2] = target: T2, stoichiometric mixture of full-length Drosophila melanogaster H2A-H2B and H3-H4 (octamer-mix) (Drosophila melanogaster, UniProt P84051 1-124; P02283 1-123; P02299 1-136; P84040 1-103); assay: ITC; 5 μM octamer-mix in the cell titrated with 90 μM APLF^AD in the syringe; 25 mM NaPi pH 7.0, 300 mM NaCl, 25°C; one set of sites model
T2 construct: histone H2A, Drosophila melanogaster, full-length; histone H2B, Drosophila melanogaster, full-length; histone H3, Drosophila melanogaster, full-length; histone H4, Drosophila melanogaster, full-length; At 300 mM NaCl without APLF^AD this is a mixture of H2A-H2B dimers and H3-H4 tetramers, not a preformed octamer; also called stoichiometric core-histone mix; histone octamer; copies: 2 + 2 + 2 + 2

[3] = target: T2, stoichiometric mixture of full-length …; assay: native MS; octamer-mix and APLF^AD mixed at 1:0.25 to 1:3 octamer equivalent to APLF^AD, exchanged into 300 mM ammonium acetate pH 7.5; Exactive Plus EMR

binding result [2]: binds
B5: SUMO-APLF^AD quadruple anchor mutant Y462A/F468A/Y476A/W485A (QA) (domain or fragment)
chain: DEDNDNVGQPNEADLNDSALDDEEEDAEPTDEDSDAEPGKEDEEKEDVEELLKEAKRFMKRK
notes: acidic domain of human APLF, residues 450 to 511; also called APLF^AD QA; source: E. coli BL21 Rosetta2 (DE3), purified; not shown: His tag, N-terminal, cleaved; SUMO, N-terminal, kept

binding result [2]: binds
B6: APLF^AD double anchor mutant Y462A/F468A (DA-34) (domain or fragment)
chain: B5 chain with A27Y, A36W
notes: acidic domain of human APLF, residues 450 to 511; source: E. coli BL21 Rosetta2 (DE3), purified

Continued, binder first:

B1: peptide corresponding to APLF^459–474 (peptide)
peptide: Ac-PNEYDLNDSFLDDEEE-NH2
notes: human APLF residues 459-474; source: synthetic peptide, bought: Biomatik
binding result [1]: binds

B2: truncated APLF^AD construct corresponding to residues 449 to 490 (APLF^AD-Δ) (domain or fragment)
chain: GLDEDNDNVGQPNEYDLNDSFLDDEEEDYEPTDEDSDWEPGKE
notes: N-terminal Gly as leftover from TEV cleavage site; human APLF residues 449 to 490; Used for crystallisation with tailless Xl. histones and in ITC with the Dm. octamer-mix; source: E. coli BL21 Rosetta2 (DE3), purified
binding result [2]: binds

B3: SUMO-APLF^AD truncated QA mutant (QA-Δ, residues 449 to 490) (domain or fragment)
chain: LDEDNDNVGQPNEADLNDSALDDEEEDAEPTDEDSDAEPGKE
notes: human APLF residues 449 to 490; source: E. coli BL21 Rosetta2 (DE3), purified; not shown: His tag, N-terminal, cleaved; SUMO, N-terminal, kept
binding result [2]: binds

B4: acidic domain of Homo sapiens APLF (APLF^AD, residues 450 to 511), wild type (domain or fragment)
chain: B5 chain with A13Y, A19F, A27Y, A36W
notes: acidic domain of human APLF (aprataxin and polynucleotide kinase-like factor), residues 450 to 511; 15N- or 2H/13C/15N-labelled for NMR; Intrinsically disordered; also called APLF^AD WT; WT; source: E. coli BL21 Rosetta2 (DE3), purified (HisTrap, TEV cleavage, anion exchange, second HisTrap)
stoichiometry N [3]: 2 APLF^AD per histone octamer equivalent

From paper PMC9328677 (Science Advances, 2021)
